From PMC11128890 (Frontiers in Cell and Developmental Biology, 2024)

B1: recombinant soluble integrin αvβ3 [not stated] / VEGF165 heparin-binding domain (HBD), wild type [human] (parent complex)
chain 1: FNLDVDSPAEYSGPEGSYFGFAVDFFVPSASSRMFLLVGAPKANTTQPGIVEGGQVLKCDWSSTRRCQPIEFDATGNRDYAKDDPLEFKSHQWFGASVRSKQDKILACAPLYHWRTEMKQEREPVGTCFLQDGTKTVEYAPCRSQDIDADGQGFCQGGFSIDFTKADRVLLGGPGSFYWQGQLISDQVAEIVSKYDPNVYSIKYNNQLATRTAQAIFDDSYLGYSVAVGDFNGDGIDDFVSGVPRAARTLGMVYIYDGKNMSSLYNFTGEQMAAYFGFSVAATDINGDDYADVFIGAPLFMDRGSDGKLQEVGQVSVSLQRASGDFQTTKLNGFEVFARFGSAIAPLGDLDQDGFNDIAIAAPYGGEDKKGIVYIFNGRSTGLNAVPSQILEGQWAARSMPPSFGYSMKGATDIDKNGYPDLIVGAFGVDRAILYRARPVITVNAGLEVYPSILNQDNKTCSLPGTALKVSCFNVRFCLKADGKGVLPRKLNFQVELLLDKLKQKGAIRRALFLYSRSPSHSKNMTISRGGLMQCEELIAYLRDESEFRDKLTPITIFMEYRLDYRTAADTTGLQPILNQFTPANISRQAHILLDCGEDNVCKPKLEVSVDSDQKKIYIGDDNPLTLIVKAQNQGEGAYEAELIVSIPLQADFIGVVRNNEALARLSCAFKTENQTRQVVCDLGNPMKAGTQLLAGLRFSVHQQSEMDTSVKFDLQIQSSNLFDKVSPVVSHKVDLAVLAAVEIRGVSSPDHVFLPIPNWEHKENPETEEDVGPVVQHIYELRNNGPSSFSKAMLHLQWPYKYNNNTLLYILHYDIDGPMNCTSDMEINPLRIKISSLQTTEKNDTVAGQGERDHLITKRDLALSEGDIHTLGCGVAQCLKIVCQVGRLDRGKSAILYVKSLLWTETFMNKENQNHSYSLKSSASFNVIEFPYKNLPIEDITNSTLVTTNVTWGIQP
chain 2: GPNICTTRGVSSCQQCLAVSPMCAWCSDEALPLGSPRCDLKENLLKDNCAPESIEFPVSEARVLEDRPLSDKGSGDSSQVTQVSPQRIALRLRPDDSKNFSIQVRQVEDYPVDIYYLMDLSYSMKDDLWSIQNLGTKLATQMRKLTSNLRIGFGAFVDKPVSPYMYISPPEALENPCYDMKTTCLPMFGYKHVLTLTDQVTRFNEEVKKQSVSRNRDAPEGGFDAIMQATVCDEKIGWRNDASHLLVFTTDAKTHIALDGRLAGIVQPNDGQCHVGSDNHYSASTTMDYPSLGLMTEKLSQKNINLIFAVTENVVNLYQNYSELIPGTTVGVLSMDSSNVLQLIVDAYGKIRSKVELEVRDLPEELSLSFNATCLNNEVIPGLKSCMGLKIGDTVSFSIEAKVRGCPQEKEKSFTIKPVGFKDSLIVQVTFDCDCACQAQAEPNSHRCNNGNGTFECGVCRCGPGWLGSQCECSEEDYRPSQQDECSPREGQPVCSQRGECLCGQCVCHSSDFGKITGKYCECDDFSCVRYKGEMCSGHGQCSCGDCLCDSDWTGYYCNCTTRTDTCMSSNGLLCSGRGKCECGSCVCIQPGSYGDTCEKCPTCPDACTFKKECVECKKFDRGALHDENTCNRYCRDEIESVKELKDTGKDAVNCTYKNEDDCVVRFQYYEDSSGKSILYVVEEPECPKGPD
chain 3: PCGPCSERRKHLFVQDPQTCKCSCKNTDSRCKARQLELNERTCRCDKPRR

Variants of: B1
Test: ELISA-type binding assay; HBD coated at 2.5 µg/ml; n=3; read off a plot

Row | Variant | response [OD450]
1 | chain 3 PCGPCSEAAAHLFVQDPQTCKCSCKNTDSRCKARQLELNERTCRCDKPRR | ~0.25
2 | chain 3 PCGPCSERRKHLFVQDPQTCKCSCANTDSACKAAQLELNERTCRCDKPRR | ~0.3
3 | chain 3 PCGPCSEAAAHLFVQDPQTCKCSCANTDSACKAAQLELNERTCRCDKPRR | ~0.02

Variants of: B1
Test: ELISA-type binding assay; HBD coated at 5 µg/ml (highest point of the curve); read off a plot

Row | Variant | response [OD450]
4 | chain 3 PCGPCSEAAAHLFVQDPQTCKCSCKNTDSRCKARQLELNERTCRCDKPRR | ~0.78
5 | chain 3 PCGPCSERRKHLFVQDPQTCKCSCANTDSACKAAQLELNERTCRCDKPRR | ~1.1
6 | chain 3 PCGPCSEAAAHLFVQDPQTCKCSCANTDSACKAAQLELNERTCRCDKPRR | ~0.11
